Test results: PMC2888197, “B-lymphocyte stimulator/a proliferation-inducing ligand heterotrimers are elevated in the sera of patients with autoimmune disease and are neutralized by atacicept and B-cell maturation antigen-immunoglobulin” (Arthritis Research & Therapy, 2010)

B1: Flag-zippered (zz) 12.6 form of APRIL (amino acids 110-250) (domain or fragment, human, UniProt O75888 110-250, looked up)
chain: KQKKQHSVLHLVPINATSKDDSDVTEVMWQPALRRGRGLQAQGYGVRIQDAGVYLLYSQVLFQDVTFTMGQVVSREGQGRQETLFRCIRSMPSHPDRAYNSCYSAGVFHLHQGDILSVIIPRARAKLNLSPHGTFLGFVKL
notes: human APRIL amino acids 110-250, downstream of the otPA leader, Flag and the zz12.6 trimerization domain; The APRIL chain of the heterotrimer m3; the zipper itself may help to hold the chains together; also called Flag-zz12.6 APRIL; APRIL NF zz12.6; source: CHO DXB11, co-expressed with Hisx6-zz12.6 BLyS, purified from conditioned media (Ni-NTA, heparin, SEC); not shown: Flag, N-terminal, kept; …
B2: a proliferation-inducing ligand (APRIL) homotrimer, recombinant (ligand, human, UniProt O75888 110-250, looked up)
chain: B1 chain
notes: APRIL, recombinant soluble homotrimer; Six lots were used for SPR; also called homotrimeric APRIL
B3: B-cell maturation antigen (BCMA)-immunoglobulin (Ig) (Fc fusion, UniProt Q02223 1-54, looked up)
chain: MLQMAGQCSQNEYFDSLLHACIPCQLRCSSNTPPLTCQRYCNASVTNSVKGTNA
notes: BCMA, soluble receptor-Fc fusion protein; Construct not described in the main text; Additional file 1 may describe it; also called BCMA-Ig
B4: atacicept (Fc fusion, human, UniProt O14836 1-165, looked up)
chain: MSGLGRSRRGGRSRVDQEERFPQGLWTGVAMRSCPEEQYWDPLLGTCMSCKTICNHQSQRTCAAFCRSLSCRKEQGKFYDHLLRDCISCASICGQHPKQCAYFCENKLRSPVNLPPELRRQRSGEVENNSDNSGRYQGLEHRGSEASPALPGLKLSADQVALVYS
notes: also called TACI-Ig; soluble receptor fusion protein of TACI

Assays:
Conditions in all cases: both partners purified
[1] = molecular target: T1, Hisx6-zz12.6 form of BLyS (amino acids 141-285) (human, UniProt Q9Y275 141-285); assay: SEC-MALS; heterotrimer co-expressed in CHO, purified by Ni-NTA (His on BLyS), heparin and SEC; ratio of the chains by Western blot (anti-His, anti-Flag), confirmed by SEC-MALS
T1 construct: The BLyS chain of the heterotrimer m3; the zipper itself may help to hold the chains together; also called BLyS NH6 zz12.6; His-zz12.6 BLyS; source: CHO DXB11, co-expressed with Flag-zz12.6 APRIL, purified from conditioned media (Ni-NTA, heparin, SEC); not shown: His6, N-terminal, kept; zz12.6 trimerization domain, N-terminal, kept

atacicept = molecular target: B4; assay: SPR; Biacore 3000; atacicept, BCMA-Ig and BAFF-R-Ig covalently immobilized on a CM4 chip; ligands ~0.05 to 20 nMol/L flowed at 50 ul/min, 25 C; 20 mmol/L sodium phosphate, 150 mmol/L NaCl, 0.05% polysorbate 20, pH 7.5; KD from ka and kd, global fit to a 1:1 model; stoichiometry not determined
[2] = molecular target: T2, recombinant BLyS/APRIL heterotrimer (Hisx6-zz12.6 BLyS with Flag-zz12.6 APRIL), predominantly 2 APRIL to 1 … (human, UniProt O75888 110-250; Q9Y275 141-285); assay: as above
T2 construct: human APRIL amino acids 110-250, downstream of the otPA leader, Flag and the proprietary zz12.6 trimerization domain; The preparation holds a small fraction of 1 APRIL to 2 BLyS (AB2) heterotrimers; also called heterotrimers; HT; not shown: Flag, N-terminal, kept; zz12.6 trimerization domain, N-terminal, kept; His6, N-terminal, kept; copies: 2 + 1

[3] = molecular target: B2; assay: as above

T2 sequence (Q9Y275 141-285, chain 2 of 2, one chain of several): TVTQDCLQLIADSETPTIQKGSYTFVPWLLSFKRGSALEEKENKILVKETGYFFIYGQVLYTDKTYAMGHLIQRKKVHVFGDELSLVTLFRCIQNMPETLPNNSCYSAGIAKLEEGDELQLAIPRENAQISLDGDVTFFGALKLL
T1 sequence (Q9Y275 141-285): as the sequence (Q9Y275 141-285, chain 2 of 2, one chain of several) above

Binder: B1
- stoichiometry N [1]: 2 APRIL per BLyS

Binder: B2
- Kd (atacicept): 100 to 200 pM

Binder: B3
- Kd [2]: 10 pM
- Kd [3]: 0.1 to 0.3 pM

Binder: B4
- Kd [2]: 400 pM
